Numbering of substitutions follows the chain as printed. Numbers in names are those of the source.
B1: CE115HA000 A56K one-arm antibody (antibody, human IgG1, kappa, L234A L235A, N297A, name in Kabat numbering)
heavy: QVQLVESGGGVVQPGRSLRLSCAASGFTFSNAWMHWVRQAPGKGLEWVAQIKAKSNNYKTYYAESVKGRFTISRDDSKNSLYLQMNSLKTEDTAVYYCRYVHYGAYYGVDAWGQGTTVTVSSASTKGPSVFPLAPSSKSTSGGTAALGCLVKDYFPEPVTVSWNSGALTSGVHTFPAVLQSSGLYSLSSVVTVPSSSLGTQTYICNVNHKPSNTKVDKKVEPKSCDKTHTCPPCPAPEAAGGPSVFLFPPKPKDTLMISRTPEVTCVVVDVSHEDPEVKFNWYVDGVEVHNAKTKPREEQYASTYRVVSVLTVLHQDWLNGKEYKCKVSNKALPAPIEKTISKAKGQPREPQVYTLPPSRCELTKNQVSLSCAVKGFYPSDIAVEWESNGQPENNYKTTPPVLDSDGSFFLVSKLTVDKSRWQQGNVFSCSVMHEALHNHYTQKSLSLSPDYKDDDDK
chain: EPKSSDKTHTCPPCPAPELLGGPSVFLFPPKPKDTLMISRTPEVTCVVVDVSHEDPEVKFNWYVDGVEVHNAKTKPREEQYNSTYRVVSVLTVLHQDWLNGKEYKCKVSNKALPAPIEKTISKAKGQPREPQVCTLPPSRDELTKNQVSLWCLVKGFYPSDIAVEWESNGQPENNYKTTPPVLDSDGSFFLYSKLTVDKSRWQQGNVFSCSVMHEALHNRYTQKSLSLSP
light: DIVMTQSPLSLPVTPGEPASISCRSSQSLVHSNRNTYLHWYQQKPGQAPRLLIYKVSNRFSGVPDRFSGSGSGTDFTLKISRVEAEDVGVYYCGQGTQVPYTFGQGTKLEIKRTVAAPSVFIFPPSDEQLKSGTASVVCLLNNFYPREAKVQWKVDNALQSGNSQESVTEQDSKDSTYSLSSTLTLSKADYEKHKVYACEVTHQGLSSPVTKSFNRGEC
B2: CE115HA000 A99S one-arm antibody (antibody, human IgG1, kappa, L234A L235A, N297A, name in Kabat numbering)
heavy: B1 heavy with K59A, A105S
chain: B1 chain
light: B1 light
B3: CE115HA000 D72V one-arm antibody (antibody, human IgG1, kappa, L234A L235A, N297A, name in Kabat numbering)
heavy: B1 heavy with K59A, D75V
chain: B1 chain
light: B1 light
B4: CE115HA000 D101F one-arm antibody (antibody, human IgG1, kappa, L234A L235A, N297A, name in Kabat numbering)
heavy: B1 heavy with K59A, D110F
chain: B1 chain
light: B1 light
B5: CE115HA000 D101A one-arm antibody (antibody, human IgG1, kappa, L234A L235A, N297A, name in Kabat numbering)
heavy: B1 heavy with K59A, D110A
chain: B1 chain
light: B1 light
B6: CE115HA000 D72A one-arm antibody (antibody, human IgG1, kappa, L234A L235A, N297A, name in Kabat numbering)
heavy: B1 heavy with K59A, D75A
chain: B1 chain
light: B1 light
B7: CE115HA000 A99T one-arm antibody (antibody, human IgG1, kappa, L234A L235A, N297A, name in Kabat numbering)
heavy: B1 heavy with K59A, A105T
chain: B1 chain
light: B1 light
B8: CE115HA000 A99F one-arm antibody (antibody, human IgG1, kappa, L234A L235A, N297A, name in Kabat numbering)
heavy: B1 heavy with K59A, A105F
chain: B1 chain
light: B1 light
B9: CE115HA000 A99K one-arm antibody (antibody, human IgG1, kappa, L234A L235A, N297A, name in Kabat numbering)
heavy: B1 heavy with K59A, A105K
chain: B1 chain
light: B1 light
B10: CE115HA000 D73E one-arm antibody (antibody, human IgG1, kappa, L234A L235A, N297A, name in Kabat numbering)
heavy: B1 heavy with K59A, D76E
chain: B1 chain
light: B1 light
B11: CE115HA000 A102P one-arm antibody (antibody, human IgG1, kappa, L234A L235A, N297A, name in Kabat numbering)
heavy: B1 heavy with K59A, A111P
chain: B1 chain
light: B1 light
B12: CE115HA000 D73K one-arm antibody (antibody, human IgG1, kappa, L234A L235A, N297A, name in Kabat numbering)
heavy: B1 heavy with K59A, D76K
chain: B1 chain
light: B1 light
B13: CE115HA000 A102V one-arm antibody (antibody, human IgG1, kappa, L234A L235A, N297A, name in Kabat numbering)
heavy: B1 heavy with K59A, A111V
chain: B1 chain
light: B1 light
B14: CE115HA000 D73A one-arm antibody (antibody, human IgG1, kappa, L234A L235A, N297A, name in Kabat numbering)
heavy: B1 heavy with K59A, D76A
chain: B1 chain
light: B1 light
B15: CE115HA000 A56N one-arm antibody (antibody, human IgG1, kappa, L234A L235A, N297A, name in Kabat numbering)
heavy: B1 heavy with K59N
chain: B1 chain
light: B1 light
B16: CE115HA000 D73R one-arm antibody (antibody, human IgG1, kappa, L234A L235A, N297A, name in Kabat numbering)
heavy: B1 heavy with K59A, D76R
chain: B1 chain
light: B1 light
B17: CE115HA000 A99Q one-arm antibody (antibody, human IgG1, kappa, L234A L235A, N297A, name in Kabat numbering)
heavy: B1 heavy with K59A, A105Q
chain: B1 chain
light: B1 light
B18: CE115HA000 A60E one-arm antibody (antibody, human IgG1, kappa, L234A L235A, N297A, name in Kabat numbering)
heavy: B1 heavy with K59A, A63E
chain: B1 chain
light: B1 light
B19: CE115HA000 A99Y one-arm antibody (antibody, human IgG1, kappa, L234A L235A, N297A, name in Kabat numbering)
heavy: B1 heavy with K59A, A105Y
chain: B1 chain
light: B1 light
B20: CE115HA000 A99L one-arm antibody (antibody, human IgG1, kappa, L234A L235A, N297A, name in Kabat numbering)
heavy: B1 heavy with K59A, A105L
chain: B1 chain
light: B1 light
B21: CE115HA000 A56L one-arm antibody (antibody, human IgG1, kappa, L234A L235A, N297A, name in Kabat numbering)
heavy: B1 heavy with K59L
chain: B1 chain
light: B1 light
B22: CE115HA000 A60D one-arm antibody (antibody, human IgG1, kappa, L234A L235A, N297A, name in Kabat numbering)
heavy: B1 heavy with K59A, A63D
chain: B1 chain
light: B1 light
B23: CE115HA000 A56Q one-arm antibody (antibody, human IgG1, kappa, L234A L235A, N297A, name in Kabat numbering)
heavy: B1 heavy with K59Q
chain: B1 chain
light: B1 light
B24: CE115HA000 D72E one-arm antibody (antibody, human IgG1, kappa, L234A L235A, N297A, name in Kabat numbering)
heavy: B1 heavy with K59A, D75E
chain: B1 chain
light: B1 light
B25: CE115HA000 A102Y one-arm antibody (antibody, human IgG1, kappa, L234A L235A, N297A, name in Kabat numbering)
heavy: B1 heavy with K59A, A111Y
chain: B1 chain
light: B1 light
B26: CE115HA000 D73N one-arm antibody (antibody, human IgG1, kappa, L234A L235A, N297A, name in Kabat numbering)
heavy: B1 heavy with K59A, D76N
chain: B1 chain
light: B1 light
B27: CE115HA000 D73T one-arm antibody (antibody, human IgG1, kappa, L234A L235A, N297A, name in Kabat numbering)
heavy: B1 heavy with K59A, D76T
chain: B1 chain
light: B1 light
B28: CE115HA000 D101G one-arm antibody (antibody, human IgG1, kappa, L234A L235A, N297A, name in Kabat numbering)
heavy: B1 heavy with K59A, D110G
chain: B1 chain
light: B1 light
B29: CE115HA000 A102I one-arm antibody (antibody, human IgG1, kappa, L234A L235A, N297A, name in Kabat numbering)
heavy: B1 heavy with K59A, A111I
chain: B1 chain
light: B1 light
B30: CE115HA000 A99D one-arm antibody (antibody, human IgG1, kappa, L234A L235A, N297A, name in Kabat numbering)
heavy: B1 heavy with K59A, A105D
chain: B1 chain
light: B1 light
B31: CE115HA000 A56Y one-arm antibody (antibody, human IgG1, kappa, L234A L235A, N297A, name in Kabat numbering)
heavy: B1 heavy with K59Y
chain: B1 chain
light: B1 light
B32: CE115HA000 D101H one-arm antibody (antibody, human IgG1, kappa, L234A L235A, N297A, name in Kabat numbering)
heavy: B1 heavy with K59A, D110H
chain: B1 chain
light: B1 light
B33: CE115HA000 D73G one-arm antibody (antibody, human IgG1, kappa, L234A L235A, N297A, name in Kabat numbering)
heavy: B1 heavy with K59A, D76G
chain: B1 chain
light: B1 light

What follows are binders tested against T1, CD3 epsilon homodimer protein (UniProt P07766 23-126) (assay: SPR (Biacore T200), CD3 epsilon homodimer on CM4 chip, one-arm antibody as analyte, 25 C;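 further: homodimer attached to the sensor surface via amine coupling, HBS-EP+ used as running buffer during binding runs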).
T1 construct: immobilized on Sensor chip CM4 by amine coupling; also called CD3 (CD3 epsilon)
T1 sequence (P07766 23-126): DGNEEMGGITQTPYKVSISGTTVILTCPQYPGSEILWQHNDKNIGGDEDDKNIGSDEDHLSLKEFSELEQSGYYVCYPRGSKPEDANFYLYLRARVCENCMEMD
Description: An appropriate amount of CD3 epsilon homodimer protein was immobilized onto Sensor chip CM4 (GE Healthcare Japan Corp.) by the amine coupling method. Then, the antibody having an appropriate concentration was injected thereto as an analyte and allowed to interact with the CD3 epsilon homodimer protein on the sensor chip. Then, the sensor chip was regenerated by the injection of 10 mmol/L glycine-HCl (pH 1.5). The assay was conducted at 25 degrees C., and HBS-EP+(GE Healthcare Japan Corp.) was used as a running buffer. […] Each parameter was calculated using Biacore T200 Evaluation Software (GE Healthcare Japan Corp.).

ratio of amounts bound (altered form / CE115HA000) | Binder
1.35 | B1
0.82 | B2
1.43 | B3
0.75 | B4
1.26 | B5
1.41 | B6
0.84 | B7
1.43 | B8
1.48 | B9
0.73 | B10
0.14 | B11
0.87 | B12
1.43 | B13
0.83 | B14
0.87 | B15
1.04 | B16
0.91 | B17

ratio of amounts bound (altered form / CE115HA000) | Binder
0.94 | B18
1.59 | B19
1.13 | B20
0.8 | B21
0.99 | B22
0.76 | B23
1.05 | B24
0.91 | B25
0.94 | B26
0.63 | B27
1.38 | B28
1.48 | B29
0.28 | B30
0.66 | B31
1.21 | B32
1.07 | B33

— patent US20210388087A1 (Chugai, published 2021)
